Target: T1, SARS-CoV-2 Spike receptor binding domain, Wuhan (ancestral) variant (SARS-CoV-2, UniProt P0DTC2, biotinylated in vitro when needed)
T1 construct: also called Wuhan RBD; soluble (monomeric) RBD
Experiment: flow cytometry on cells; cell-surface binding inhibition: 36 nM RBD preincubated with 1 to 1088 nM of the molecule for 1 h at 37°C in PBS, 1% BSA, 2 mM EDTA, then 1x10^5 HEK-293T-hACE2 cells for 1 h on ice; RBD on cells revealed with Strep-Tactin-Dye649; blocker and RBD meet in solution
Details: both partners purified

B1: Binder C (VHH)
VHH: QVQLVESGGGLVQPGGSLRLSCAASGITLDYYAIGWFRQAPGKEREGVSRIRSSDGSTNYADSVKGRFTMSRDNAKNTVYLQMNSLKPEDTAVYYCAYGPLTKYGSSWYWPYEYDYWGQGTQVTVSS
notes: not shown: His6, N-terminal, cleaved; SUMO, N-terminal, cleaved
- binding result: binds
